Results on 9 molecules are retold here after patent US20200317768A1 (published 2020).

Positions count from the first letter of the chain named. Numbers in names are those of the source.

In experiment [1] the target is T1, human FcγRIIaR extracellular domain, His-tagged (human, UniProt P12318 34-217).
T1 construct: also called human FcgRIIaR; FcγRIIa (type R); not shown: His-tag added to the C-terminus
T1 chain: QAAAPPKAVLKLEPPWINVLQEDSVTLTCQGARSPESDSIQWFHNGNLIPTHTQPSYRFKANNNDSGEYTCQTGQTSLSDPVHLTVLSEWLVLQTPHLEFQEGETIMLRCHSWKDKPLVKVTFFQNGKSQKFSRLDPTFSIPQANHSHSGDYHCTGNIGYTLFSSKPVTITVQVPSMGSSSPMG
The experiment can be described thus: SPR (BIACORE), antibody captured, FcγR as analyte, 25°C. The method, then:
(§1) The kinetic analysis of interactions between these antibodies and FcγR was carried out using BIACORE® T200 or BIACORE® 4000 (GE Healthcare). HBS-EP+ (GE Healthcare) was used as the running buffer, and the measurement temperature was set to 25° C. A chip produced by immobilizing Protein A. Protein A/G or mouse anti-human IgG kappa light chain (BD Biosciences) onto a Series S Sensor Chip CM4 or CM5 (GE Healthcare) by the amine-coupling method was used. […] After the measurement, the antibody captured on the chip was washed off by allowing reaction with 10 mM glycine-HCl, pH1.5 and 25 mM NaOH so that the chip was regenerated and used repeatedly. The sensorgrams obtained as measurement results were analyzed by the 1:1 Langmuir binding model using the BIACORE® Evaluation Software to calculate the binding rate constant ka (L/mol/s) and dissociation rate constant kd (l/s), and the dissociation constant KD (mol/L) was calculated from these values. […] Regarding such interactions, KD values were calculated using the following 1:1 binding model described in BIACORE® T100 Software Handbook BR1006-48 Edition AE.
(§2) The behavior of interacting molecules according to the 1:1 binding model on BIACORE® can be described by Equation 1: Req=C·R max/(KD+C)+RI, wherein, Req is a plot of steady-state binding levels to analyte concentration. C is concentration, RI is bulk refractive index contribution in the sample, and Rmax is analyte binding capacity of the surface. When this equation is rearranged, KD can be expressed as Equation 2: KD=C·Rmax/(Req−RI)−C. KD can be calculated by substituting the values of Rmax, RI, and C into Equation 1 or Equation 2. From the current measurement conditions, RI=0, C=2 μmol/L can be used.

Experiment [2] has as its target T2, human FcγRIIaH extracellular domain, His-tagged (human, UniProt P12318 34-217).
T2 construct: also called human FcgRIIaH; FcγRIIa (type H); not shown: His-tag added to the C-terminus
T2 sequence: T1 chain with R134H
The description is as above. The method, then: as §1, §2

For experiment [3], the target named is T3, cynomolgus monkey FcγRIIa3 extracellular domain, His-tagged (cynomolgus monkey).
T3 construct: also called cyno FcgRIIa3; cynoFcγRIIa3; not shown: His-tag added to the C-terminus
T3 chain: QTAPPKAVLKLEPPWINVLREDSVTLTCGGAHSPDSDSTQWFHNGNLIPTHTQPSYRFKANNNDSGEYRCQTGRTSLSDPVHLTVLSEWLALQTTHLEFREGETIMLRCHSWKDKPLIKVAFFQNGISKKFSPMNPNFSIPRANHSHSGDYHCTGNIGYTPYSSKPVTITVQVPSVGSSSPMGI
The experiment can be described thus: SPR; KD of SG1 divided by KD of the variant.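 Also: relative to parent M103205H795-SG1 carrying the SG1 human heavy chain constant region.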 On the procedure: (§3) Regarding such interactions, KD values were calculated using the following 1:1 binding model described in BIACORE® T100 Software Handbook BR1006-48 Edition AE.
as §2
(§4) The resultant variants were expressed using M103202L889-SK1 as light chain and their affinity to human and cynoFcγRs were evaluated (Table 21).
(In SPR one partner is held on a chip, and binding of the other changes the refractive index at the surface.)

In experiment [4] the target is T4, cynomolgus monkey FcγRIIa1 extracellular domain, His-tagged (cynomolgus monkey).
T4 construct: also called cyno FcgRIIa1; cynoFcγRIIa1; not shown: His-tag added to the C-terminus
T4 chain: T3 chain with T95P, A121T, S128A, P133H, N135D
The experiment can be described thus: SPR; KD of SG1 divided by KD of the variant.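 Also: relative to parent M103205H795-SG1 carrying the SG1 human heavy chain constant region.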 The method, then:
as §3, §2, §4

In experiment [5] the target is T5, cynomolgus monkey FcγRIIb extracellular domain, His-tagged (cynomolgus monkey).
T5 construct: also called cyno FcgRIIb; cynoFcγRIIb; not shown: His-tag added to the C-terminus
T5 chain: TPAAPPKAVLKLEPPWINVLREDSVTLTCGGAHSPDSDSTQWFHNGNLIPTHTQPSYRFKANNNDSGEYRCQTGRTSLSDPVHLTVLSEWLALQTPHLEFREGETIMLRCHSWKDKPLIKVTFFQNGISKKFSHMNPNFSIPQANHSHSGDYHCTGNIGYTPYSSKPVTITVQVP
In words: SPR; KD of SG1 divided by KD of the variant.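 Also: relative to parent M103205H795-SG1 carrying the SG1 human heavy chain constant region.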 The method, then:
as §3, §2, §4

The target of experiment [6] is T1, human FcγRIIaR extracellular domain, …. The experiment can be described thus: SPR; KD of SG1 divided by KD of the variant.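 Also: relative to parent M103205H795-SG1 carrying the SG1 human heavy chain constant region.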 The method, then: as §3, §2, §4
The target of experiment [7] is T2, human FcγRIIaH extracellular domain, …. The experiment can be described thus: SPR; KD of SG1 divided by KD of the variant. The method, then: as §3, §2, §4
For experiment [8], the target named is T6, human FcγRIIIaV extracellular domain, His-tagged (human, UniProt P08637 17-208).
T6 construct: also called human FcgRIIIaV; not shown: His-tag added to the C-terminus
In words: SPR; KD of SG1 divided by KD of the variant. On the procedure:
as §3, §2, §4

Experiment [9] addresses T7, cynomolgus monkey FcγRIIIaS extracellular domain, His-tagged (cynomolgus monkey, UniProt A3RFZ7 21-206 (rhesus entry)).
T7 construct: also called cyno FcgRIIIaS; cynoFcγRIIIaS; not shown: His-tag added to the C-terminus
The experiment can be described thus: SPR; KD of SG1 divided by KD of the variant. The method, then: as §3, §2, §4

T7 sequence (A3RFZ7 21-206): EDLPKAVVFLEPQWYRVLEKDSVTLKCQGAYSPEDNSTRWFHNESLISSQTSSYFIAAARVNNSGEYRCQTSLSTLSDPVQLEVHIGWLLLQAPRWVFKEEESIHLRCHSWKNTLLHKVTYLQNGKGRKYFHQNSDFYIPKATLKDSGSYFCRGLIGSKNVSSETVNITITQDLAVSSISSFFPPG
T6 sequence (P08637 17-208 F176V): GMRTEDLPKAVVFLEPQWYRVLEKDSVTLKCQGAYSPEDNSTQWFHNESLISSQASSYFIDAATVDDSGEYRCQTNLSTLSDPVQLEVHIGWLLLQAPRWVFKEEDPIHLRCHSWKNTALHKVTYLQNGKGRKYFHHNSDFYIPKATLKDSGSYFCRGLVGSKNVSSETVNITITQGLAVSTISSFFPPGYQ

B1: MS1032LO06-SG1 (M103205H795-SG1/M103202L889-SK1) (antibody, human IgG1, kappa)
heavy: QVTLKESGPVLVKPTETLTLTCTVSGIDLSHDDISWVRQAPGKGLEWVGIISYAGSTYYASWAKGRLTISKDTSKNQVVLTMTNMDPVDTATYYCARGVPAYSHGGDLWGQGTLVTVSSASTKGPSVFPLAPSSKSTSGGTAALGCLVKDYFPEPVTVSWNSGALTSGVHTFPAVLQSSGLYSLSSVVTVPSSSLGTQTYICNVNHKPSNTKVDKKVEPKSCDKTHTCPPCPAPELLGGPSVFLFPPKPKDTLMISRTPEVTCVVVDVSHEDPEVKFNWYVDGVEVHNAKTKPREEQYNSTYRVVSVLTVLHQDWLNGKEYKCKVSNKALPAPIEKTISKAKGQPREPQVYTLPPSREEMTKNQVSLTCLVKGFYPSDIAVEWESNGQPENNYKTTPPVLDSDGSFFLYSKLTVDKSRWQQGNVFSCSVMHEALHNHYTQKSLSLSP
light: DIVMTQSPATLSLSPGERATLSCTSSQSVYHANWLSWFQQKPGQPPKLLIYWASTLAYGVPSRFSGSGSGTDFTLTISSLQPEDAATYYCAGGYGGGRYAFGQGTKVEIKRTVAAPSVFIFPPSDEQLKSGTASVVCLLNNFYPREAKVQWKVDNALQSGNSQESVTEQDSKDSTYSLSSTLTLSKADYEKHKVYACEVTHQGLSSPVTKSFNRGEC
notes: Anti-latent myostatin antibody; Parent of the Fc variants; copies: 2 + 2
In the case of B1, the Kd in experiment [1] was 1100 nM; in experiment [2], 690 nM. The “KD fold (SG1 = 1)” value in experiment [3], in [4], in experiment [5], in experiment [6], in [7] and in experiment [8] was 1 fold throughout. Further, the “KD fold (SG1 = 1)” value in experiment [9] was 1 fold.

B2: M103205H795-MY263/M103202L889-SK1 (antibody, human IgG1, kappa)
heavy: QVTLKESGPVLVKPTETLTLTCTVSGIDLSHDDISWVRQAPGKGLEWVGIISYAGSTYYASWAKGRLTISKDTSKNQVVLTMTNMDPVDTATYYCARGVPAYSHGGDLWGQGTLVTVSSASTKGPSVFPLAPSSKSTSGGTAALGCLVKDYFPEPVTVSWNSGALTSGVHTFPAVLQSSGLYSLSSVVTVPSSSLGTQTYICNVNHKPSNTKVDKKVEPKSCDKTHTCPPCPAPELLQGPSVFLFPPKPKDTLMISRTPEVTCVVVDVSDEDPEVKFNWYVDGVEVHNAKTKPREEQYNSTYRVVSVLTVLHQDWLNGKEYKCKVSNKALPKPIEKTISKAKGQPREPQVYTLPPSREEMTKNQVSLTCLVKGFYPSDIAVEWESNGQPENNYKTTPPVLDSDGSFFLYSKLTVDKSRWQQGNVFSCSVMHEALHNHYTQKSLSLSP
light: B1 light
notes: copies: 2 + 2
Take B2: the Kd in experiment [1] worked out at 710 nM; in experiment [2], 320 nM. In addition, the “KD fold (SG1 = 1)” value in [3] is 2.3 fold; in [4], 1 fold; in experiment [5] it was 1.8 fold; in experiment [6] it was 1.5 fold; in [7] it was 2.2 fold; in experiment [8], 0.35 fold. In addition, the “KD fold (SG1 = 1)” value in experiment [9] amounted to 0.46 fold.

B3: M103205H795-MY267/M103202L889-SK1 (antibody, human IgG1, kappa)
heavy: B2 heavy with Q238I
light: B1 light
notes: copies: 2 + 2
As to B3, the Kd in experiment [1] came out at 720 nM; in experiment [2], 200 nM. Besides, the “KD fold (SG1 = 1)” value is 2.3 fold in experiment [3]; 1.3 fold in experiment [4]; 2.1 fold in experiment [5]; 2.5 fold in [6]; 3.5 fold in [7]; 0.05 fold in [8]. The “KD fold (SG1 = 1)” value in [9] came out at 0.13 fold.

B4: M103205H795-MY260/M103202L889-SK1 (antibody, human IgG1, kappa)
heavy: B2 heavy with Q238M
light: B1 light
notes: copies: 2 + 2
Take B4: the figures for the Kd in experiment [1] and in experiment [2] were 1800 nM and 910 nM, respectively. Also, the “KD fold (SG1 = 1)” value in experiment [3] amounted to 1.2 fold; in experiment [4] it was 0.7 fold; in experiment [5], 1.1 fold; in experiment [6] it was 0.6 fold; in experiment [7], 0.8 fold; in experiment [8] it was 0.27 fold. In addition, the “KD fold (SG1 = 1)” value in experiment [9] came to 0.55 fold.

B5: M103205H795-MY265/M103202L889-SK1 (antibody, human IgG1, kappa)
heavy: B2 heavy with Q238T
light: B1 light
notes: copies: 2 + 2
As to B5, the figures for the Kd in [1] and in experiment [2] were 440 nM and 210 nM, respectively. Also, the “KD fold (SG1 = 1)” value in [3] was determined as 3.5 fold; in experiment [4], 1.5 fold; in experiment [5], 3.1 fold; in [6], 2.5 fold; in [7], 3.3 fold; in [8], 0.15 fold. Moreover, the “KD fold (SG1 = 1)” value in experiment [9] came to 0.18 fold.

B6: M103205H795-MY201/M103202L889-SK1 (antibody, human IgG1, kappa)
heavy: B2 heavy with Q238N
light: B1 light
notes: Fc variant G236N/H268D/A330K (EU numbering) of SG1; also called MS1032LO06-MY201; copies: 2 + 2
With B6, the Kd in experiment [1] worked out at 1900 nM; in experiment [2], 910 nM. Also, the “KD fold (SG1 = 1)” value in [3] turned out to be 4.4 fold; in experiment [4], 2.3 fold; in experiment [5], 4.2 fold; in [6], 0.6 fold; in [7] it was 0.8 fold; in [8], 0.03 fold. For the same molecule, in experiment [9], the “KD fold (SG1 = 1)” value worked out at 0.06 fold.

B7: M103205H795-MY264/M103202L889-SK1 (antibody, human IgG1, kappa)
heavy: B2 heavy with Q238L
light: B1 light
notes: copies: 2 + 2
In the case of B7, the Kd is 2300 nM in [1] and 1500 nM in experiment [2]. Further, the “KD fold (SG1 = 1)” value in experiment [3] is 1.1 fold; in experiment [4] it was 0.6 fold; in experiment [5], 0.7 fold; in experiment [6] it was 0.5 fold; in experiment [7] it was 0.5 fold; in [8], 0.01 fold. In addition, the “KD fold (SG1 = 1)” value in [9] was determined as 0.1 fold.

B8: M103205H795-MY261/M103202L889-SK1 (antibody, human IgG1, kappa)
heavy: B2 heavy with Q238H
light: B1 light
notes: copies: 2 + 2
On to B8, for which the Kd in experiment [1] worked out at 1100 nM; in [2], 240 nM. Moreover, the “KD fold (SG1 = 1)” value is 3.1 fold in experiment [3]; 0.9 fold in experiment [4]; 1.2 fold in experiment [5]; 1 fold in experiment [6]; 2.9 fold in experiment [7]; 0.07 fold in experiment [8]. The “KD fold (SG1 = 1)” value in experiment [9] was determined as 0.15 fold.

B9: M103205H795-MY262/M103202L889-SK1 (antibody, human IgG1, kappa)
heavy: B2 heavy with Q238V
light: B1 light
notes: copies: 2 + 2
In the case of B9, the Kd in experiment [1] is 710 nM; in [2], 140 nM. The “KD fold (SG1 = 1)” value in experiment [3] came out at 2.1 fold; in experiment [4], 1.7 fold; in [5], 3.2 fold; in experiment [6], 1.5 fold; in experiment [7] it was 4.9 fold; in experiment [8], 0.16 fold. In experiment [9], the “KD fold (SG1 = 1)” value came out at 0.13 fold.

By Kd is commonly meant the free concentration of one partner at which half of the binding sites on the other are occupied at equilibrium, for simple one-to-one binding.
